Experimental data reported in US8525237 (University of California, dated 2013).
Ends that are not written are not given here.

Target: transferrin receptor (TfR) (UniProt P02786 89-760, limits assumed)
Experiment: phage-based ELISA (assay not given)

Chain of transferrin receptor (TfR) (P02786 89-760 limits assumed): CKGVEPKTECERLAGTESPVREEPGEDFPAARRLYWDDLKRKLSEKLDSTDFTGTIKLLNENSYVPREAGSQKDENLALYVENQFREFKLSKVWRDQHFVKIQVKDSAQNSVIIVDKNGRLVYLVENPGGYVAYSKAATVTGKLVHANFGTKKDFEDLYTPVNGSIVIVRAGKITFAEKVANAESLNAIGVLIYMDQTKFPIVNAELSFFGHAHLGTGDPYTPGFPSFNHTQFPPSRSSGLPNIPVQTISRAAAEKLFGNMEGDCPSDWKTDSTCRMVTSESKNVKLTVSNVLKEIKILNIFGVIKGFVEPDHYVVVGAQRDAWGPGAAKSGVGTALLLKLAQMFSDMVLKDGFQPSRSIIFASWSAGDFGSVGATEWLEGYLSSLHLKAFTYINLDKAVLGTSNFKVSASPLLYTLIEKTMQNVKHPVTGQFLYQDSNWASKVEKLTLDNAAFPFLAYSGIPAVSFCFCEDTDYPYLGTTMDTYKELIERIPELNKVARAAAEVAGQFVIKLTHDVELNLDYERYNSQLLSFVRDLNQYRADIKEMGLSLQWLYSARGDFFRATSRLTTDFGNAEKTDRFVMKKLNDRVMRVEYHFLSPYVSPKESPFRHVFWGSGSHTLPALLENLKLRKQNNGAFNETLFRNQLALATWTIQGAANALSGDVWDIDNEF

B1: PSMA-3 peptide displayed on M13 phage (peptide, not shown: large carriers)
peptide: SECVEVFQNSCDW
modifications: not fully specified; cysteine pairing not given here
notes: Tested on phage in ELISA and as phage encapsulated in PEDOT nanowires; also called second generation peptide; PSMA-3 viruses
B1: no binding.
